Source: patent US20120277143A1 (Janssen / Centocor, published 2012)
Substitutions are numbered along the chain they refer to.

T1: human IL4 (human, UniProt P05112 25-153, biotinylated in the SPR and competition assays (sites not given))
T1 construct: Peprotech #200-04, mature protein produced in E. coli; also called hIL4; Interleukin 4
T1 sequence: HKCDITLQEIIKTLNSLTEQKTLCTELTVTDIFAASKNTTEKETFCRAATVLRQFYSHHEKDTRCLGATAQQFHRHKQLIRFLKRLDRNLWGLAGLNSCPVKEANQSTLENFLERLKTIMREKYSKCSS

B1: C06_43G2 (designed binder)
chain: DLGKKLLEAARAGQDDEVRILMANGADVNAKDVTGETPLHLASWEGHLEIVEVLLKHGADVNAQDLFGITPLHLAAATDGHLEIVEVLLKNGADVNATDSNGFTPLHLAASYGHLEIVDVLLKNGADVNAHDFDGFTPLHLAASWGHLEIVEVLLKYGADVNAQDKFGKTAFDISIDNGNEDLAEILQKLN
notes: ankyrin repeat protein; His-tagged, IMAC-purified
B2: C06_44C12 (designed binder)
chain: DLGKKLLEAASAGQDDEVHILMANGADVNALDDSGYTPLHLAAEDGHLEIVEVLLKHGADVNAADRMGDTPLHLAAFVGHLEIVEVLLKYGADVNAVDLAGVTPLHVAAFYGHLEIVEVLLKYGADVNAQDKFGKTAFDISIDNGNEDLAEILQKLN
notes: as for B1
B3: C06_24H1 (designed binder)
chain: B2 chain with S11R, H19R, L31H, D33N, Y36F, D45I, H57Y, Y123N
notes: as for B1
B4: C06_44F6 (designed binder)
chain: B2 chain with K5E, S11R, A64M, R66N, M67I, D69N, P71S, V78D, Y123H
notes: as for B1
B5: C06_48F3 (designed binder)
chain: B2 chain with S11R, H19R, L31F, Y36L, E44D
notes: as for B1
B6: C06_53E9 (designed binder)
chain: DLGKELLEAASAGQDDEVHILMANGADVNASDKDGSTPLHLAAVYGHLEIVEVLLKYGADVNAEDMNGYTPLHLAAADGHLEIVEVLLKYGADVDAKDRTGWTPLHLAGEFGHLEIVEVLLKYGADVNAQDKFGKTAFDISIDNGNEDLAEILQKLN
notes: as for B1
B7: C06_19C3 (designed binder)
chain: DLGKKLLEAARAGQDDEVRILMANGADVNATDDWGDTLLHLAATDGHLEIVEVLLKNGADVNAIDAMGMTPLHLAAVYGYLEIVEVLLKNGADVNAMDFSGFTPLHLAAFSGHLEIVEVLLKYGADVNAQDKFGKTAFDISIDNGNEDLAEILQKLN
notes: as for B1
B8: C06_19F8 (designed binder)
chain: DLGKKLLEAARAGQDDEVRILMANGADVNATDDWGDTLLHLAATDGHLEIVEVLLKNGADVNASDSQGLTPLHLAAYYGHLEIVEVLLKYGADVNANDHHGITPLHLAAFAGHLEIVEVLLKYGADVNAQDKFGKTAFDISIDNGNEDLAEILQKLN
notes: as for B1
B9: C06_17A11 (designed binder)
chain: B7 chain with T31I, D33E, L38P, T44I, D45E, N57Y, I64S
notes: as for B1
B10: C06_50E5 (designed binder)
chain: B7 chain with V28A
notes: as for B1
B11: C06_54C2 (designed binder)
chain: B7 chain with A108T
notes: as for B1
B12: C06_13A10 (designed binder)
chain: DLGKKLLEAARAGQDDEVRILMANGADVNVSDRIGNTPLHLAAVYVHLEIVEVLLKNGADVNALDDDGLTPLHLAAADGHLEIVEVLLKHGADVNATDSHVWTPLHLAAFFGHLEIVEVLLKYGADVNAQDKFGKTAFDISIDNGNEDLAEILQKLN
notes: as for B1
B13: C06_26H2 (designed binder)
chain: DLGKKLLEAARAGQDDEVRILMANGADVNAYDSSGDTPLHVAAIDGHLEIVEVLLKHGADVNASDASGDTPLHLAADFGHLKIVEVLLKHGADVNAEDMIGITPLHLAAYNGHLEIVEVLLKNGADVNASDVHGFTPLHLAAFIGHLGIVEVLLKYDADVNAQDKFGKTAFDISIDNRNEDLAEILQKLN
notes: as for B1
B14: C06_20B8 (designed binder)
chain: DLGKKLLEAASAGQDDEVHILMANGADVNAVDHDGFTPLHLAAADGHLEIVEVLLKHGADVNADDNFGWTPLHLAAFFGHLEIVEVLLKHGADVNAKDQTGLTPLHLAAVDGHLEIVEVLLKHGADVNAQDKFGKTAFDISIDNGNEDLAEILQKLN
notes: as for B1
B15: C06_28D4 (designed binder)
chain: B14 chain with K5E, H123N
notes: as for B1
B16: C06_42C7 (designed binder)
chain: B14 chain with H19R
notes: as for B1
B17: C06_42A11 (designed binder)
chain: DLGKKLLEAASVGQDDEVHILMANGADVNATDAWGLTPLHLAALLGHLEIVEVLLKHGADVNAHDETGFTPLHLAAVEGHLEIVEVLLKYGADVNASDILGRTPLHLAANFGHLEIVEVLLKHGADVNAQDKFGKTAFDISIDNGNEDLAEILQKLN
notes: as for B1
B18: C06_4A7 (designed binder)
chain: B17 chain with S11R, V12A, H19R, T31E, A33D, L44M, H57Y, H64K, E66D, H123Y
notes: as for B1
B19: C06_14A4 (designed binder)
chain: B17 chain with S11R, V12A, H19R, H123Y
notes: as for B1

target: T1, human IL4; assay: Luminex competition, 67 pM biotin-IL4 binding to IL4RA-Fc beads
Experimental: For biotinylation of IL4, recombinant human IL4 (Peprotech) was biotinylated at a 4:1 ratio using EZ-Link NHS-LC-Biotin (Pierce, #21336) for 2 hours at RT. The protein was dialyzed in PBS overnight to remove excess biotinylation reagent. Competition binding for cynomologous IL4 (SEQ ID NO: 5) was performed using the isolated protein biotinylated in the same manner.
AR protein inhibition of IL4 binding to IL4 RA was assessed using IL4 RA-Fc (R&D Systems), comprising the Gly24-His232 which represents the ECD (SEQ ID NO: 5) fused to a human IgGl-Fc and therefor a disulfide linked homodimer. The protein was conjugated to carboxylated Luminex microspheres according to the manufacturer's protocol. For neutralization experiments, 5000 IL4RA-Fc conjugated beads in 50 μl were added to each well of a 96-well filter plate (Millipore). Biotinylated human IL4 was mixed with an appropriate dilution of AR protein in Luminex Assay Buffer (PBS, 1% BSA, pH 7.4) to give a final concentration of 67 pM IL4. The plate was incubated for 1 hour at RT in the dark on a plate shaker, set to shake vigorously to avoid bead aggregation. The plate was washed twice with 150 μl of wash buffer (PBS, 0.1% BSA, pH 7.4, 0.05% Tween-20) using a vacuum manifold followed by the addition of 50 μl of Streptavidin PE at 25 μg/ml and incubated at RT for 20 minutes. The plates were washed again and 150 μl of sheath fluid was added and the plate was placed on the shaker for 5 minute. Plates were read using a Luminex® 100 system; data were plotted as a function of AR protein concentration. IC₅₀ values were determined by fitting the data to the equation for sigmoidal dose response using PRISM software (GraphPAD PRISM) (Table 6).

Row | IC50 | Binder
1 | 23.5 pM | B1
2 | 20.3 pM | B2
3 | 71.7 pM | B3
4 | 15.8 pM | B4
5 | 19.7 pM | B5
6 | 17.8 pM | B6
7 | 6.3 pM | B7
8 | 17.6 pM | B8
9 | 74.4 pM | B9
10 | 14.8 pM | B10
11 | 16.8 pM | B11
12 | 30.6 pM | B12
13 | 31.4 pM | B13
14 | 20.5 pM | B14
15 | 35.3 pM | B15
16 | 45.9 pM | B16
17 | 65.6 pM | B17
18 | 44.3 pM | B18

target: T1, human IL4; assay: cell-based or functional assay

Row | A549 TARC Inhibition IC50 | HEK Stat6 Inhibition IC50 | Type 1 Complex inhibition IC50 | Binder
19 | 262 pM | 1.6 pM | 0.8 pM | B1
20 | 231 pM | 1.1 pM | 1.7 pM | B2
21 | – | 241 pM | – | B3
22 | 142 pM | 6.4 pM | 24.9 pM | B4
23 | – | 4.7 pM | – | B5
24 | – | 14.3 pM | – | B6
25 | – | 1.5 pM | – | B7
26 | – | 15.2 pM | – | B8
27 | – | 3 pM | – | B9
28 | – | 3.5 pM | – | B10
29 | – | 3.2 pM | – | B11
30 | 621 pM | 5.4 pM | 6.6 pM | B12
31 | – | 3.3 pM | – | B13
32 | 288 pM | 4 pM | 3.8 pM | B14
33 | – | 3.2 pM | – | B15
34 | – | 6.8 pM | – | B16
35 | 325 pM | 19.3 pM | 3.2 pM | B17
36 | – | 444 pM | – | B18

target: T1, human IL4; assay: SPR ProteOn, biotin-IL4 on neutravidin chip, 1:1 fit
Experimental: Purified binders selected as “hits” were ranked by their affinity on a ProteOn XPR-36 instrument (Bio-Rad). ProteOn is an optical biosensor instrument that measures protein-protein interactions in real time, based on Surface Plasmon Resonance technology similar to Biacore (GE). A rapid experimental protocol was performed as follows: On a GLC sensor chip (Bio-Rad), Neutravidin (Thermo Scientific) was covalently immobilized to a density of >5000 RU using amine coupling chemistry as described by the manufacturer. On one flow cell, biotinylated IL4 (Peprotech) was immobilized to a level of 250 RU, while another flow cell was used as reference, with neutravidin immobilized only. […] The retrieved values were used to rank the AR proteins by their affinity.

Row | Kd | koff | kon | Binder
37 | 42.7 pM | 5.98e-05 s⁻¹ | 1.4e+06 M⁻¹ s⁻¹ | B1
38 | 43.6 pM | 3.77e-05 s⁻¹ | 864000 M⁻¹ s⁻¹ | B2
39 | 96.7 pM | 0.0002 s⁻¹ | 2.07e+06 M⁻¹ s⁻¹ | B4
40 | 174 pM | 0.000151 s⁻¹ | 872000 M⁻¹ s⁻¹ | B5
41 | 326 pM | 0.000281 s⁻¹ | 862000 M⁻¹ s⁻¹ | B6
42 | 101 pM | 9.73e-05 s⁻¹ | 962000 M⁻¹ s⁻¹ | B7
43 | 1410 pM | 5.18e-05 s⁻¹ | 36600 M⁻¹ s⁻¹ | B8
44 | 136 pM | 0.00014 s⁻¹ | 1.03e+06 M⁻¹ s⁻¹ | B9
45 | 174 pM | 0.000126 s⁻¹ | 725000 M⁻¹ s⁻¹ | B10
46 | 400 pM | 0.000161 s⁻¹ | 403000 M⁻¹ s⁻¹ | B11
47 | 59.2 pM | 0.000149 s⁻¹ | 2.52e+06 M⁻¹ s⁻¹ | B12
48 | 71.2 pM | 0.000247 s⁻¹ | 3.47e+06 M⁻¹ s⁻¹ | B13
49 | 80.9 pM | 0.000163 s⁻¹ | 2.02e+06 M⁻¹ s⁻¹ | B14
50 | 85.6 pM | 0.000138 s⁻¹ | 1.62e+06 M⁻¹ s⁻¹ | B15
51 | 97.8 pM | 0.000179 s⁻¹ | 1.83e+06 M⁻¹ s⁻¹ | B16
52 | 85.8 pM | 2.73e-05 s⁻¹ | 318000 M⁻¹ s⁻¹ | B19
53 | 7.5 pM | 5.43e-06 s⁻¹ | 727000 M⁻¹ s⁻¹ | B17
